IC50 and Kd data for nine sequences are collected here from the Immune Epitope Database (IEDB).

For assay [1], the target named is HLA-B*27:05. As to the kind of experiment: IEDB peptide-MHC binding, purified MHC/competitive/fluorescence; ≥ and ≤ were set here for values at or beyond the usual limits of such assays.
In assay [2] the target is HLA-A*69:01. The experiment in a line: IEDB peptide-MHC binding, purified MHC/direct/fluorescence; filed as Kd, often an IC50 or EC50 that approximates it; ≥ and ≤ were set here for values at or beyond the usual limits of such assays.
Assay [3] deals with HLA-B*58:01. The assay is described as above.
Assay [4] deals with HLA-B*07:02. The description is as above. As to conditions: source organism: Brucella abortus 2308.
The target in assay [5] is HLA-B*08:01. The description is as above.
Assay [6] addresses HLA-A*11:01. The assay is described as above. The settings on record: source organism: Brucella abortus 2308.
The target in assay [7] is HLA-B*27:05. The assay is described as above.
Assay [8] addresses HLA-A*31:01. The assay is described as above. As to conditions: source organism: Brucella abortus 2308.
The target in assay [9] is HLA-A*01:01. Described as above.
Assay [10] addresses HLA-B*44:02. Described as above. As to conditions: source organism: Brucella abortus 2308.
In assay [11] the target is HLA-A*26:01. The assay is described as above. As to conditions: source organism: Brucella abortus 2308.
In assay [12] the target is HLA-B*15:01. Described as above.
Assay [13] addresses HLA-A*03:01. The description is as above. The settings on record: source organism: Brucella abortus 2308.
In assay [14] the target is HLA-B*73:01. The description is as above.
The target in assay [15] is HLA-B*40:01. The description is as above.
For assay [16], the target named is HLA-A*02:01. Described as above. The settings on record: source organism: Brucella abortus 2308.
The target in assay [17] is HLA-C*06:02. The assay is described as above.
Assay [18] addresses HLA-A*31:01. As to the kind of experiment: IEDB peptide-MHC binding, purified MHC/competitive/fluorescence; filed as Kd, often an IC50 or EC50 that approximates it; ≥ and ≤ were set here for values at or beyond the usual limits of such assays. The settings on record: source organism: Escherichia coli.
Assay [19] has as its target HLA-B*15:01. Described as above. The settings on record: source organism: Escherichia coli.
Assay [20] addresses HLA-A*03:01. The description is as above. As to conditions: source organism: Escherichia coli.
Assay [21] addresses HLA-B*48:01. As to the kind of experiment: IEDB peptide-MHC binding, purified MHC/direct/fluorescence; filed as Kd, often an IC50 or EC50 that approximates it; ≥ and ≤ were set here for values at or beyond the usual limits of such assays. As to conditions: source organism: Toxoplasma gondii.
Assay [22] addresses HLA-C*04:01. The assay is described as above. The settings on record: source organism: Leishmania major strain Friedlin.
In assay [23] the target is HLA-B*18:01. Described as above. As to conditions: source organism: Marburg virus - Musoke, Kenya, 1980.
In assay [24] the target is HLA-A*26:03. The description is as above. The settings on record: source organism: Ravn virus - Ravn, Kenya, 1987.
The target in assay [25] is HLA-B*46:01. Described as above. As to conditions: source organism: Marburg virus - Musoke, Kenya, 1980.
The target of assay [26] is HLA-B*39:01. The description is as above. As to conditions: source organism: Marburg virus - Musoke, Kenya, 1980.
The target in assay [27] is HLA-B*08:02. Described as above.
Assay [28] has as its target HLA-B*57:01. The description is as above. As to conditions: source organism: Marburg virus - Musoke, Kenya, 1980.
In assay [29] the target is HLA-A*30:01. As to the kind of experiment: IEDB peptide-MHC binding, purified MHC/competitive/fluorescence; filed as Kd, often an IC50 or EC50 that approximates it; ≥ and ≤ were set here for values at or beyond the usual limits of such assays. As to conditions: source organism: Orthomarburgvirus marburgense.
For assay [30], the target named is HLA-B*07:02. The description is as above. The settings on record: source organism: Orthomarburgvirus marburgense.
Assay [31] concerns the target HLA-B*48:01. The description is as above. As to conditions: source organism: Orthomarburgvirus marburgense.
Assay [32] addresses HLA-A*68:02. The description is as above. As to conditions: source organism: Orthomarburgvirus marburgense.
Assay [33] has as its target HLA-B*15:17. The description is as above. As to conditions: source organism: Orthomarburgvirus marburgense.
For assay [34], the target named is HLA-A*02:01. The description is as above. As to conditions: source organism: Orthomarburgvirus marburgense.
The target in assay [35] is HLA-B*83:01. The description is as above. As to conditions: source organism: Campylobacter jejuni subsp. jejuni NCTC 11168 = ATCC 700819.
Assay [36] has as its target HLA-B*45:06. Described as above.
Assay [37] has as its target HLA-B*40:13. Described as above. The settings on record: source organism: Campylobacter jejuni subsp. jejuni NCTC 11168 = ATCC 700819.
The target in assay [38] is HLA-B*15:42. The assay is described as above.
Assay [39] deals with HLA-A*32:07. The description is as above. The settings on record: source organism: Campylobacter jejuni subsp. jejuni NCTC 11168 = ATCC 700819.
For assay [40], the target named is HLA-B*46:01. The description is as above. As to conditions: source organism: Campylobacter jejuni subsp. jejuni NCTC 11168 = ATCC 700819.
Assay [41] addresses HLA-C*07:02. As to the kind of experiment: IEDB peptide-MHC binding, purified MHC/direct/fluorescence; filed as Kd, often an IC50 or EC50 that approximates it; ≥ and ≤ were set here for values at or beyond the usual limits of such assays. The settings on record: source organism: Mus musculus.
Assay [42] deals with HLA-C*06:02. The experiment in a line: IEDB peptide-MHC binding, purified MHC/competitive/fluorescence; filed as Kd, often an IC50 or EC50 that approximates it; ≥ and ≤ were set here for values at or beyond the usual limits of such assays. As to conditions: source organism: Mus musculus.
The target of assay [43] is HLA-B*73:01. The assay is described as above. As to conditions: source organism: Mus musculus.
Assay [44] deals with HLA-B*27:20. The description is as above. The settings on record: source organism: Mus musculus.
Where [45] appears, read: source organism: Brucella abortus 2308.
[46] abbreviates: source organism: Brucella melitensis.
Setting [47] is: source organism: Toxoplasma gondii.
[48] abbreviates: source organism: Marburg virus - Musoke, Kenya, 1980.
The mark [49] stands for this setting: source organism: Ravn virus - Ravn, Kenya, 1987.
[50] abbreviates: source organism: Campylobacter jejuni subsp. jejuni NCTC 11168 = ATCC 700819.

Consider GGAAICGKY, for which, in [1] (source organism: Hepacivirus hominis), the IC50 was not below 750 µM.
Take KRASGDPYF: the Kd is not below 20 µM in assay [2] (setting [45]); 5.93 µM in assay [3] (setting [46]); not below 20 µM in assay [4]; not below 20 µM in assay [5] (setting [45]); not below 20 µM in [6]; 2.79 µM in [7] (setting [46]). Further, the Kd in assay [8], in assay [9] (setting [45]), in assay [10], in [11], in [12] (setting [45]) and in assay [13] was not below 20 µM in each case. Further, the Kd in assay [14] (source organism: Brucella suis ATCC 23445), in assay [15] (setting [45]) and in assay [16] was not below 20 µM each time.
Take RYWRLRYRI: the Kd in assay [17] (source organism: Escherichia coli) was not below 20 µM; in [18], 0.0021 µM; in assay [19] it was not below 20 µM; in assay [20] it was not below 20 µM.
In assay [1] (source organism: Homo sapiens), RRFFPYYV displayed an IC50 of 3.2 µM.
On to WRMVVRASF, for which the figures for the Kd in [21], in assay [7] (setting [47]) and in [14] (setting [47]) were not below 20 µM, 0.008 µM and 1.34 µM, respectively.
Consider TRDPNLAYI, for which, in assay [22], the Kd was not below 20 µM.
For the sequence YHLGGIEGL, the Kd is 2.41 µM in assay [2] (setting [48]); not below 20 µM in [3] (setting [48]); not below 20 µM in assay [23]; not below 20 µM in assay [5] (setting [49]); not below 20 µM in assay [7] (setting [48]); not below 20 µM in assay [24]. Besides, the Kd was not below 20 µM in [9] (setting [48]); not below 20 µM in assay [12] (setting [48]); not below 20 µM in assay [25]; 0.0403 µM in assay [26]; not below 20 µM in assay [27] (setting [49]); not below 20 µM in assay [28]. The Kd in [15] (setting [48]) was not below 20 µM; in assay [29], not below 20 µM; in assay [30], not below 20 µM; in [31] it was 0.155 µM; in [32], 1.44 µM; in assay [33] it was not below 20 µM. Besides, the Kd in [34] worked out at 0.007 µM.
With YMKKRYEEF, the Kd in assay [17] (setting [50]) was not below 20 µM; in assay [27] (source organism: Campylobacter jejuni subsp. jejuni 81116), 0.127 µM; in assay [35] it was not below 5 µM; in assay [36] (setting [50]) it was not below 5 µM; in [37], 0.326 µM; in assay [38] (setting [50]), not below 5 µM. The Kd came out at 0.232 µM in [39] and 0.188 µM in assay [40].
As for FRMLAWHVL, the Kd was 0.03 µM in [41]; not below 5 µM in [36] (source organism: Mus musculus); 0.0038 µM in [42]; not below 5 µM in assay [38] (source organism: Mus musculus); 0.689 µM in [43]; 0.0002 µM in [44].
